Three molecules from paper PMC9727770 (2023) can be followed below.

The experiment has as its target RBD of the SARS-CoV-2 L strain spike protein, soluble (SARS-CoV-2 (L strain), UniProt P0DTC2 319-541). Briefly: BLI.

B1: Regn-10933 (antibody, V domains shown)
VH: QVQLVESGGGLVKPGGSLRLSCAASGFTFSDYYMSWIRQAPGKGLEWVSYITYSGSTIYYADSVKGRFTISRDNAKSSLYLQMNSLRAEDTAVYYCARDRGTTMVPFDYWGQGTLVTVSS
VL: DIQMTQSPSSLSASVGDRVTITCQASQDITNYLNWYQQKPGKAPKLLIYAASNLETGVPSRFSGSGSGTDFTFTISGLQPEDIATYYCQQYDNLPLTFGGGTKVEIK
Broadly, the Kd is the constant that tells how readily two partners part at equilibrium. The low end stands for a tighter complex, the high end for a looser complex. Molecule B1 came in with a Kd of 14.4 nM. In other words, the double-digit nanomolar range.

B2: Regn-10987 (antibody, V domains shown)
VH: QVQLVESGGGVVQPGRSLRLSCAASGFTFSNYAMYWVRQAPGKGLEWVAVISYDGSNKYYADSVKGRFTISRDNSKNTLYLQMNSLRTEDTAVYYCASGSDYGDYLLVYWGQGTLVTVSS
VL: QSALTQPASVSGSPGQSITISCTGTSSDVGGYNYVSWYQQHPGKAPKLMIYDVSKRPSGVSNRFSGSKSGNTASLTISGLQSEDEADYYCNSLTSISTWVFGGGTKLTVL
Consider B2, for which the affinity, expressed as Kd, was 74.2 nM.

B3: Eli Lilly Ly-CoV016 (antibody, V domains shown)
VH: EVQLVESGGGLVQPGGSLRLSCAASGFTVSSNYMSWVRQAPGKGLEWVSVIYSGGSTFYADSVKGRFTISRDNSMNTLFLQMNSLRAEDTAVYYCARVLPMYGDYLDYWGQGTLVTVSS
VL: not shown
For B3, the Kd stood at 203 nM.
